Assay results published in PMC12499391.

Legend:
Experiment in all cases: ELISA; dose-response of S protein binding to ACE2 and C-type lectins; which partner was coated and how binding was detected is not given for this experiment
[1] = biological target: Recombinant human DC‐SIGN (human) (UniProt Q9NNX6)
[2] = biological target: Recombinant human CLEC5A (human) (UniProt Q9NY25)
[3] = biological target: Recombinant human L‐SIGN (human) (UniProt Q9H2X3)
[4] = biological target: Recombinant human CLEC10A (human) (UniProt Q8IUN9)
[5] = biological target: Recombinant human CLEC2 (human) (UniProt Q9P126)
Sequence of UniProt Q9P126 (Q9P126 whole entry): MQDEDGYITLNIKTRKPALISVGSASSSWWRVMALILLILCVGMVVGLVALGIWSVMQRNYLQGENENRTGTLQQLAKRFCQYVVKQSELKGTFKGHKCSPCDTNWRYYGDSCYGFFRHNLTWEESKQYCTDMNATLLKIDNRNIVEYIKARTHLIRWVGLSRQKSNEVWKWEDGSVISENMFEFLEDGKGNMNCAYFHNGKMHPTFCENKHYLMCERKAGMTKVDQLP

Sequence of UniProt Q8IUN9 (Q8IUN9 whole entry): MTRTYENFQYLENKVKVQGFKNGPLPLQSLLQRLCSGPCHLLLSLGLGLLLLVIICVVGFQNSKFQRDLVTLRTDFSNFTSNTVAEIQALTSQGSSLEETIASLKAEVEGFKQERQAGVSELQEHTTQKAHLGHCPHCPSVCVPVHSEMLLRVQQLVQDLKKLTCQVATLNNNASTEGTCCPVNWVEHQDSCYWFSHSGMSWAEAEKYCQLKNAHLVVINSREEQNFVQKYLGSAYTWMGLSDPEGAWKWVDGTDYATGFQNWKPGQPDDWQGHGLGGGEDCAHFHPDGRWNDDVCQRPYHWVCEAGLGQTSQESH
Sequence of UniProt Q9H2X3 (Q9H2X3 whole entry): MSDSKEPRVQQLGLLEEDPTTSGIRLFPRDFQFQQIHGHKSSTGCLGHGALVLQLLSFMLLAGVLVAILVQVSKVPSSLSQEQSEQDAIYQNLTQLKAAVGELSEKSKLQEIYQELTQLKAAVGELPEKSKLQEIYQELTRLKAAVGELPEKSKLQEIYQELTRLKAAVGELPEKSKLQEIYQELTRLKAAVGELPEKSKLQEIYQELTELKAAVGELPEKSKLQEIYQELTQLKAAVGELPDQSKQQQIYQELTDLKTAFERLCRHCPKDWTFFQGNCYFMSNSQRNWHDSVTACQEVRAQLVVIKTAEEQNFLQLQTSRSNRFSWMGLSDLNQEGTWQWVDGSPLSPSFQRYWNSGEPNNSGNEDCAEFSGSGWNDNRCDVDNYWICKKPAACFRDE
Sequence of UniProt Q9NY25 (Q9NY25 whole entry): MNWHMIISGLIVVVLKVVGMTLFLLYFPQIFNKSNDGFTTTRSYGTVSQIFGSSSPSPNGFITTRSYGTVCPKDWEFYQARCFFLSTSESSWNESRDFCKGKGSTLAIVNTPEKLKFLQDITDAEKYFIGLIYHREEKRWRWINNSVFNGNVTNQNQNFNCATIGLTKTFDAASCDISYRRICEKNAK
Sequence of UniProt Q9NNX6 (Q9NNX6 whole entry): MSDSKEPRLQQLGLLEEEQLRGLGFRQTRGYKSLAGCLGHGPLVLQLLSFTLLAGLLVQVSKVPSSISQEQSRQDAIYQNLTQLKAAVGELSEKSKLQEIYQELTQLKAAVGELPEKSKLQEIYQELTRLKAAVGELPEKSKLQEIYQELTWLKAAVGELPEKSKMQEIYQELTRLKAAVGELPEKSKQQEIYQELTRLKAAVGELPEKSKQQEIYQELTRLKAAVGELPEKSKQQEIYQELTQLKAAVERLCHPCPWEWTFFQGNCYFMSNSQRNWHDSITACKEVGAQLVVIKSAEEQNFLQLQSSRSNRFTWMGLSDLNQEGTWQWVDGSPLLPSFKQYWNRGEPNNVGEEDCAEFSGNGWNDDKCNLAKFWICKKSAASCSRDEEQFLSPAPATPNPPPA

SARS‐CoV‐2 spike (S) protein (from UniProt P0DTC2 14-1213) (natural protein)
EC50 [1]: 4.59 nM
EC50 [2]: 6.41 nM
EC50 [3]: 5.15 nM
EC50 [4]: 9.75 nM
EC50 [5]: 7.69 nM
